From US9493781B2, “Synthetic brassica-derived chloroplast transit peptides” (DOW AGROSCIENCES LLC, priority 2012, dated 2016)

What was measured:
Arabidopsis [1] = test: dgt-28, dgt-32, dgt-33, dgt-3, dgt-7 transformed Arabidopsis (T1, T2, T3) response to postemergence glyphosate, % visual injury; format: in vivo, Arabidopsis thaliana; conditions: 14 days after application
From the text: Transgenic T1 Arabidopsis plants containing the dgt-28 transgene were sprayed with differing rates of glyphosate. Elevated rates were applied in this study to determine the relative levels of resistance (105, 420, 1,680 or 3,360 g ae/ha). A typical 1× usage rate of glyphosate that will control non-transformed Arabidopsis is 420 g ae/ha. […] The T1 Arabidopsis plants that were used in this study were variable copy number for the dgt-28 transgene. The low copy dgt-28 T1 Arabidopsis plants were self-pollinated and used to produce T2 plants.
Results of Glyphosate Selection of Transformed dgt-28 Arabidopsis Plants. The Arabidopsis T1 transformants were first selected from the background of untransformed seed using a glufosinate selection scheme. Three flats or 30,000 seed were analyzed for each T1 construct. The T1 plants selected above were molecularly characterized and representative plants with variable copy number were subsequently transplanted to individual pots and sprayed with various rates of commercial glyphosate as previously described. The response of these plants is presented in terms of % visual injury 2 weeks after treatment (WAT). […] An arithmetic mean and standard deviation is presented for each construct used for Arabidopsis transformation. The range in individual response is also indicated in the last column for each rate and transformation. Wild-type, non-transformed Arabidopsis (c.v. Columbia) served as a glyphosate sensitive control.
T2Arabidopsis Data. The second generation plants (T2) of selected T1 Arabidopsis events which contained low copy numbers of the dgt-28 transgene were further characterized for glyphosate tolerance. Glyphosate was applied as described previously. The response of the plants is presented in terms of % visual injury 2 weeks after treatment (WAT). […] An arithmetic mean and standard deviation are presented for each construct used for Arabidopsis transformation. The range in individual response is also indicated in the last column for each rate and transformation. Wild-type, non-transformed Arabidopsis (cv. Columbia) served as a glyphosate sensitive control. In the T2 generation hemizygous and homozygous plants were available for testing for each event and therefore were included for each rate of glyphosate tested. Hemizygous plants contain two different alleles at a locus as compared to homozygous plants which contain the same two alleles at a locus. Variability of response to glyphosate is expected in the T2 generation as a result of the difference in gene dosage for hemizygous as compared to homozygous plants. The variability in response to glyphosate is reflected in the standard deviation and range of response.
T3 Arabidopsis Data. The third generation plants (T3) of selected T2 Arabidopsis events which contained low copy numbers of the dgt-28 transgene were further characterized for glyphosate tolerance. […] Glyphosate was applied as described previously. The response of the plants is presented in terms of % visual injury 2 weeks after treatment (WAT). […] An arithmetic mean and standard deviation are presented for each construct used for Arabidopsis transformation. The range in individual response is also indicated in the last column for each rate and transformation. Wild-type, non-transformed Arabidopsis (cv. Columbia) served as a glyphosate-sensitive control.

Arabidopsis [2] = test: Heritability progeny test of T1 families (T2 plants) with glufosinate, Arabidopsis; format: in vivo, Arabidopsis thaliana; conditions: progeny test of 100 T2 plants, glufosinate 200 g ae/ha
From the text: Heritability. Confirmed transgenic T1 Arabidopsis events were self-pollinated to produce T2 seed. These seed were progeny tested by applying Ignite™ herbicide containing glufosinate (200 g ae/ha) to 100 random T2 siblings. […] The T1 families (T2 plants) segregated in the anticipated 3 Resistant: 1 Sensitive model for a dominantly inherited single locus with Mendelian inheritance as determined by Chi square analysis (P>0.05). […] Seed were collected from 5 to 15 T2 individuals (T3 seed). Twenty-five T3 siblings from each of 3-4 randomly-selected T2 families were progeny tested as previously described.

[3] = Table 8, T1 Arabidopsis, 105 g ae/ha glyphosate
[4] = Table 8, T1 Arabidopsis, 420 g ae/ha glyphosate
[5] = Table 8, T1 Arabidopsis, 1680 g ae/ha glyphosate
[6] = Table 8, T1 Arabidopsis, 3360 g ae/ha glyphosate
[7] = Table 10, T1 Arabidopsis, 1,680 g ae/ha glyphosate
[8] = Table 12, T2 Arabidopsis, 1 copy, 420 g ae/ha glyphosate
[9] = Table 12, T2 Arabidopsis, 1 copy, 840 g ae/ha glyphosate
[10] = Table 12, T2 Arabidopsis, 1 copy, 1680 g ae/ha glyphosate
[11] = Table 12, T2 Arabidopsis, 1 copy, 3360 g ae/ha glyphosate

B1: pDAB105531: TraP8 v2 -- dgt-28 v5: binary construct TraP8 v2: dgt-28 v5 (SEQ ID NO:34) (nucleic acid)
DNA: ATGGCTCAATCTAGCAGAATCTGCCACGGTGTGCAGAACCCATGTGTGATCATTTCCAATCTCTCCAAATCCAACCAGAACAAATCTCCTTTCTCAGTCAGCCTCAAGACTCACCAGCAGCAGCGTCGTGCTTACCAGATATCTAGCTGGGGATTGAAGAAGTCAAACAACGGGTCCGTGATTCGTCCGGTTAAGGCAGCAAGAGGGATGCCAGCCTTGTCTTTACCTGGATCAAAGAGTATCACAGCTAGGGCACTCTTTCTTGCTGCTGCTGCTGATGGGGTTACTACTTTGGTGAGGCCATTGAGAAGTGACGACACAGAAGGATTCGCTGAGGGGTTAGTTCGTTTAGGCTATCGTGTAGGGAGGACACCCGATACTTGGCAAGTCGATGGCAGACCACAAGGACCAGCAGTGGCTGAGGCTGACGTCTACTGTAGAGACGGAGCAACCACCGCTAGATTCTTGCCAACCTTAGCAGCTGCTGGTCACGGAACATACAGATTTGATGCTTCACCACAGATGAGGAGACGTCCTCTTTTGCCCTTAAGCAGAGCCTTGAGGGATTTGGGTGTCGATCTTAGACACGAAGAAGCTGAAGGTCATCACCCTCTGACTGTCCGTGCTGCTGGGGTTGAAGGAGGAGAGGTTACTTTGGATGCTGGTCAGTCAAGTCAGTATCTCACTGCCTTGTTGCTCCTTGGTCCCCTTACAAGACAAGGACTGAGGATAAGGGTTACTGATTTGGTGTCAGCACCATACGTGGAGATTACGCTTGCAATGATGAGGGCTTTCGGAGTTGAAGTGGCAAGGGAGGGAGATGTGTTCGTTGTTCCACCTGGTGGATATCGTGCAACTACGTATGCTATAGAACCCGACGCAAGTACTGCTTCTTACTTCTTCGCAGCTGCTGCTTTGACTCCTGGAGCTGAAGTGACTGTACCTGGGTTAGGCACGGGAGCACTTCAAGGAGATTTGGGATTTGTAGATGTCTTAAGGAGAATGGGAGCCGAGGTGTCCGTAGGAGCTGATGCAACCACTGTTAGAGGAACTGGTGAATTGCGTGGCCTTACAGCCAACATGAGAGACATAAGTGATACGATGCCGACCCTCGCTGCAATAGCACCCTTTGCTAGTGCTCCAGTTAGAATCGAGGATGTTGCCAACACTCGTGTCAAAGAATGTGACAGACTTGAGGCTTGTGCAGAGAACCTTAGGAGGTTGGGAGTAAGGGTTGCAACGGGTCCGGACTGGATTGAGATACACCCTGGTCCAGCTACTGGTGCTCAAGTCACAAGCTATGGTGATCACAGAATTGTGATGTCATTTGCAGTGACTGGACTTCGTGTGCCTGGGATCAGCTTCGACGACCCTGGCTGTGTTCGTAAGACTTTTCCTGGGTTTCACGAGGCTTTCGCAGAATTGAGGCGTGGCATTGGGAGCTGA
modifications: In-frame fusion of dgt-28 v5 and TraP8 v2
For B1, the “% Injury Ave” value (Arabidopsis [1]; [3]) was 10.8%, the “% Injury Range (%)” value (Arabidopsis [1]; [3]) was 0-25% and the “No. plants with 20-40% injury” value (Arabidopsis [1]; [3]) was 1. For the same molecule, the “No. plants with <20% injury” value (Arabidopsis [1]; [3]) was 3, the “No. plants with >40% injury” value (Arabidopsis [1]; [3]) was 0 and the “% Injury Ave” value (Arabidopsis [1]; [4]) was 22.8%. For the same molecule, the “% Injury Range (%)” value (Arabidopsis [1]; [4]) was 8-50%, the “No. plants with 20-40% injury” value (Arabidopsis [1]; [4]) was 0 and the “No. plants with <20% injury” value (Arabidopsis [1]; [4]) was 3. The “No. plants with >40% injury” value (Arabidopsis [1]; [4]) was 1, the “% Injury Ave” value (Arabidopsis [1]; [5]) was 5.3% and the “% Injury Range (%)” value (Arabidopsis [1]; [5]) was 0-8%. The “No. plants with 20-40% injury” value (Arabidopsis [1]; [5]) was 0, the “No. plants with <20% injury” value (Arabidopsis [1]; [5]) was 4 and the “No. plants with >40% injury” value (Arabidopsis [1]; [5]) was 0. The “% Injury Ave” value (Arabidopsis [1]; [6]) was 29.3%, the “% Injury Range (%)” value (Arabidopsis [1]; [6]) was 22-35% and the “No. plants with 20-40% injury” value (Arabidopsis [1]; [6]) was 4. For the same molecule, the “No. plants with <20% injury” value (Arabidopsis [1]; [6]) was 0, the “No. plants with >40% injury” value (Arabidopsis [1]; [6]) was 0 and the “% Injury Ave” value (Arabidopsis [1]; [7]) was 5.3%. For the same molecule, the “% Injury Range (%)” value (Arabidopsis [1]; [7]) was 0-8%, the “No. plants with 20-40% injury” value (Arabidopsis [1]; [7]) was 0 and the “No. plants with <20% injury” value (Arabidopsis [1]; [7]) was 4. The “No. plants with >40% injury” value (Arabidopsis [1]; [7]) was 0, the “% Injury Ave” value (Arabidopsis [1]; [8]) was 0.5% and the “% Injury Range (%)” value (Arabidopsis [1]; [8]) was 0-2%. For the same molecule, the “No. plants with 20-40% injury” value (Arabidopsis [1]; [8]) was 0, the “No. plants with <20% injury” value (Arabidopsis [1]; [8]) was 4 and the “No. plants with >40% injury” value (Arabidopsis [1]; [8]) was 0. The “% Injury Ave” value (Arabidopsis [1]; [9]) was 1.3%, the “% Injury Range (%)” value (Arabidopsis [1]; [9]) was 0-5% and the “No. plants with 20-40% injury” value (Arabidopsis [1]; [9]) was 0. The “No. plants with <20% injury” value (Arabidopsis [1]; [9]) was 4, the “No. plants with >40% injury” value (Arabidopsis [1]; [9]) was 0 and the “% Injury Ave” value (Arabidopsis [1]; [10]) was 7.5%. For the same molecule, the “% Injury Range (%)” value (Arabidopsis [1]; [10]) was 5-15%, the “No. plants with 20-40% injury” value (Arabidopsis [1]; [10]) was 0 and the “No. plants with <20% injury” value (Arabidopsis [1]; [10]) was 4. The “No. plants with >40% injury” value (Arabidopsis [1]; [10]) was 0, the “% Injury Ave” value (Arabidopsis [1]; [11]) was 7.5% and the “% Injury Range (%)” value (Arabidopsis [1]; [11]) was 0-15%. For the same molecule, the “No. plants with 20-40% injury” value (Arabidopsis [1]; [11]) was 0, the “No. plants with <20% injury” value (Arabidopsis [1]; [11]) was 4 and the “No. plants with >40% injury” value (Arabidopsis [1]; [11]) was 0. The “T1 Families Tested Segregating at 1 Locus (%)” value (Arabidopsis [2]) was 100%.
